In patent US20120263730A1 (DEUTSCHES KREBSFORSCHUNGSZENTRUM, published 2012):

B1: N-streptag Sdc4ΔTMC (human Syndecan-4 extracellular domain, last 52 amino acids deleted, N-terminal Streptag-HA-CBP) (receptor)
chain: ESIRETEVIDPQDLLEGRYFSGALPDDEDVVGPGQESDDFELSGSGDLDDLEDSMIGPEVVHPLVPLDNHIPERAGSGSQVPTEPKKLEENEVIPKRISPVEESEDVSNKVSMSSTVQGSNIFERTE
modifications: sulfated glycosaminoglycan chains (GAGs)
notes: The Sdc4 signal peptide was replaced by that of mKremen2; Partially purified from conditioned medium of HEK293T cells and captured on streptavidin-coated plates; also called N-streptag-hSdc4ΔTMC; purified extracellular domain of Sdc4; not shown: Streptag-HA-CBP fragment of the pGLUE expression vector
B2: human Syndecan-4 (receptor)
chain: ESIRETEVIDPQDLLEGRYFSGALPDDEDVVGPGQESDDFELSGSGDLDDLEDSMIGPEVVHPLVPLDNHIPERAGSGSQVPTEPKKLEENEVIPKRISPVEESEDVSNKVSMSSTVQGSNIFERTEVLAALIVGGIVGILFAVFLILLLMYRMKKKDEGSYDLGKKPIYKKAPTNEFYA
modifications: glycosaminoglycan chains (GAGs)
notes: Expressed on transfected HEK293T cells; also called Sdc4; hSdc4
B3: hRspo1-AP (human Rspondin-1 fused C-terminally with alkaline phosphatase) (ligand, UniProt Q2MKA7 21-263, looked up)
chain: SRGIKGKRQRRISAEGSQACAKGCELCSEVNGCLKCSPKLFILLERNDIRQVGVCLPSCPPGYFDARNPDMNKCIKCKIEHCEACFSHNFCTKCKEGLYLHKGRCYPACPEGSSAANGTMECSSPAQCEMSEWSPWGPCSKKQQLCGFRRGSEERTRRVLHAPVGDHAACSDTKETRRCTVRRVPCPEGQKRRKGGQGRRENANRNLARKESKEAGAGSRRRKGQQQQQQQGTVGPLTSAGPA
notes: Used as conditioned medium from HEK293T cells; also called hRspol-AP; not shown: alkaline phosphatase (AP) tag

What was measured:
[1] = molecular target: T1, hRspo3ΔC-AP (human Rspondin-3 aa 1-209 fused to alkaline phosphatase) (human, UniProt Q9BXY4 22-209); test: in vitro binding assay: N-streptag Sdc4ΔTMC on streptavidin-coated plates, serially diluted hRspo3ΔC-AP, bound AP activity by chemiluminescence, Scatchard plot
T1 construct: partially purified for the in vitro assay; also called Rspo3-AP; hRspo3-AP; not shown: alkaline phosphatase (AP) tag
T1 sequence: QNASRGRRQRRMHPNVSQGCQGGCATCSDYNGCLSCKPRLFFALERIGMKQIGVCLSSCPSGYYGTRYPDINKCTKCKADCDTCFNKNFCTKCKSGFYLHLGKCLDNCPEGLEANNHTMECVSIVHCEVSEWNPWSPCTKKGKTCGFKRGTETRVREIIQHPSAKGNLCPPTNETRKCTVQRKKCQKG
Procedure: For the in vitro binding assay white, high binding ELISA 96 well plates (Greiner) were coated overnight at 4° C. with 100 μL of 2 μg/mL Streptavidin in bicarbonate buffer (NaHCO₃, 50 mM, pH 9,6). Wells were washed 6 times with […] TBST and incubated with […] of blocking buffer (5% BSA, 1mM MgCl₂ on TBST) on a shaker for 1h at RT. The wells were loaded with […] N-streptag Sdc4ATMC protein in blocking buffer and allowed to bind overnight on a shaker at 4° C. Wells were washed 6 times with […] TBST and incubated with […] of blocking buffer for 1 h. For the binding experiments, […] of serially diluted hRspo3ΔC-AP were placed in wells coated with blocking buffer or N-streptag Sdc4ΔTMC. After 2 h incubation at RT wells were washed 6 times with […] TBST. Bound AP activity was measured using chemiluminescent SEAP Reporter Gene Assay (Roche). For each dilution, background binding value was subtracted from hRspo3ΔC-AP value. Binding data were analyzed by Scatchard plot using Excel.

[2] = molecular target: T2, Wnt5aV5 (V5-tagged Wnt5a) (mouse, UniProt P22725 62-380, limits assumed); test: cell surface binding on transfected HEK293T cells
T2 construct: The construct text says 'mWnt3a was subcloned' for pPGKmWnt5aV5, which is probably a slip; Conditioned medium from stably transfected L cells; also called mWnt5aV5; recombinant Wnt5a; not shown: V5 tag
T2 sequence (looked up): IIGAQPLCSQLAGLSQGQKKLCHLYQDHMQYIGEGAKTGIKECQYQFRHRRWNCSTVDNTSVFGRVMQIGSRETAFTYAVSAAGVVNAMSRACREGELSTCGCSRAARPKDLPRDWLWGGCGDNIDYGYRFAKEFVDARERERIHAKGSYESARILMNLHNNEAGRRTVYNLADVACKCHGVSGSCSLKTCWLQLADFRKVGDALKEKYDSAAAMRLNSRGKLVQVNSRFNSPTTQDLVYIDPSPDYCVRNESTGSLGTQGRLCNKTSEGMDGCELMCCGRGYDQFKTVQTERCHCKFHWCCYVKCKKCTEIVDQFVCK
Text: (A-C) Cell surface binding assays. (A, D) Rspo3 binds to syndecan 4 and glypican 3. HEK293T cells were transfected with indicated plasmids and V5-tagged Wnt5a or alkaline phosphatase tagged Rspo3, Dkk1, or TSP proteins were applied for cell surface binding as indicated. (B, C, E, F) Cells were transfected with indicated plasmids and conditioned media.
(§1) Protein conditioned media were produced by transient transfection of HEK293T cells with plasmids encoding fusion proteins: hRspol-AP, hRspo2ΔC-AP, hRspo3ΔC-AP, hRspo3TSP-AP, and dkk1-AP in complete DMEM. XWnt8-hFzd5 fusion was produced in serum-free medium (OPTIMEM I, Gibco) and conditioned medium was concentrated about 100-fold using Centricon Plus-20 filters (Millipore). Wnt5aV5 protein conditioned media was produced using L cells stable transfected with pWnt5aV5. For cell-surface binding experiments, 293T cells were plated on polylysine coated plates, transfected with genes to be tested using FuGENE 6 (Roche) for 48 h, incubated with conditioned media containing fusion proteins for 2 h on ice, washed with Hank's buffer, fixed for 30 min with 0,5mM DSP (Pierce) in Hank's-100mM HEPES, pH 7,2, washed with 0,1 M Tris pH 8,0 and stained with Fast Red (Roche). […] It should be compared with background staining obtained from cells transfected with control plasmid or other genes that are not able bind applied fusion protein.

[3] = molecular target: B3; test: cell surface binding, AP fusion on transfected HEK293T cells
Text: (§2) (A) Rspo2 and Rspo3 bind to Syndecan-1, Syndecan-2, Syndecan-3 and Syndecan-4. […] HEK293 T-cells were transfected with indicated plasmids and alkaline phosphatase tagged Rspo1, Rspo2, Rspo3 and Rspo4 proteins were applied for cell surface binding as indicated. Cells were transfected with indicated plasmids and conditioned media containing alkaline phosphatise (AP)-fusion proteins of R-spondins were applied for cell surface binding and AP staining as indicated. (B) Cells were transfected with indicated plasmids and incubated with or without NaClO₃. After 24 h Rspo3-AP was applied for binding and proceeded for staining. (C) In vitro binding assay with N-streptag Sdc4ΔTMC purified from conditioned media of control or NaCIO₃ treated cells with purified Rspo3-AP (RU, relative units). (D) Scatchard plot analysis for in vitro binding assays with purified N-streptag Sdc4ΔTMC and Rspo3-AP. (E) Rspo3 binds to Glypican-1, Glypican-2, Glypican-3, Glypican-4, Glypican-5 and Glypican-6.
as §1

mouse Syndecan-3 = molecular target: T3, mouse Syndecan-3 (mouse, UniProt Q64519 45-442, glycosaminoglycan chains (sites not given)); test: as above
T3 construct: whole, on cells; Expressed on transfected HEK293T cells; also called Sdc3; mSdc3
Text: as §2, §1

mouse Syndecan-1 = molecular target: T4, mouse Syndecan-1 (mouse, UniProt P18828 23-311, glycosaminoglycan chains (sites not given)); test: as above
T4 construct: whole, on cells; Expressed on transfected HEK293T cells; also called Sdc1; mSdc1
T4 sequence (looked up): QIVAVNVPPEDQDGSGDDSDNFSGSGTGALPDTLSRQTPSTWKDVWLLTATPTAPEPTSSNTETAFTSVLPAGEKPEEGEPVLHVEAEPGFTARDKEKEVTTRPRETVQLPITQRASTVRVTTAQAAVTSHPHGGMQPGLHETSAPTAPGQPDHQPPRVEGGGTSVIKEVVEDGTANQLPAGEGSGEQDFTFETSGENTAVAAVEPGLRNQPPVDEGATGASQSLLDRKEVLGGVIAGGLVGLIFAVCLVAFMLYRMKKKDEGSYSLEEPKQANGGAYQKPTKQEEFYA
Text: as §2, §1

T3 sequence (Q64519 45-442): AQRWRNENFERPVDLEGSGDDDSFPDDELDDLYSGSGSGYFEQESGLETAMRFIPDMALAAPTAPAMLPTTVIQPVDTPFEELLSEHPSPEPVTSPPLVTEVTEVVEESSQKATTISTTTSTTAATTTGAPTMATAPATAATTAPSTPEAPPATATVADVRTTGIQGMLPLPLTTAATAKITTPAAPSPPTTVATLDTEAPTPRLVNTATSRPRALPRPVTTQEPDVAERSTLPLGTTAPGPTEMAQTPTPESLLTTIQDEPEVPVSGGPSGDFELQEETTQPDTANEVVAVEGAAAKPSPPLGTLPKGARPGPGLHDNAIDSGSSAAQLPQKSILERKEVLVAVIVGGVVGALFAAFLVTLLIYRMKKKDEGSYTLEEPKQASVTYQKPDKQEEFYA

A Kd [1] of 880 pM was found for B1 in this work.

B2: no binding [2]; no binding [3].

B3: no binding (mouse Syndecan-3); no binding (mouse Syndecan-1).
